From article PMC12645917

How the values were obtained:
[1] = molecular target: TGEV S-Trimer (trimerized TGEV spike protein, 2P-stabilised, residues 1-1,388 with C-terminal GCN4 trimerization motif) (transmissible gastroenteritis virus (TGEV)); assay: SEC; purified protein on Superose 6 increase 10/300 GL, 20 mM HEPES pH 7.6, 150 mM NaCl; single peak compared with the 669 kDa standard
[2] = molecular target: PEDV S-Trimer (trimerized PEDV spike protein, 2P-stabilised, residues 1-1,319 with C-terminal GCN4 trimerization motif) (porcine epidemic diarrhea virus (PEDV)); assay: as above

Row | Substance | stoichiometry N [1] | stoichiometry N [2]
1 | TGEV S-Trimer (trimerized TGEV spike protein, 2P-stabilised, residues 1-1,388 with C-terminal GCN4 trimerization motif) (natural protein) | 3 | –
2 | PEDV S-Trimer (trimerized PEDV spike protein, 2P-stabilised, residues 1-1,319 with C-terminal GCN4 trimerization motif) (natural protein) | – | 3
